In patent US20140193430A1:
Values belong to the substance of their own block, whether it stands above or below them.

What was measured:
[1] = target: immobilized KIR2DS1 (UniProt Q14954); test: BIAcore competition on KIR2DS1 chip; first Ab DF200, second Ab (competitor) 1-4F1
[2] = target: immobilized KIR2DS1 (UniProt Q14954); test: BIAcore, second Ab on KIR2DS1 chip with first Ab (competitor) 1-7F9 bound
[3] = target: recombinant KIR2DL3 protein (entire extracellular domain, produced in E. coli, refolded) (human) (UniProt P43628); test: BIAcore competition on KIR2DL3 chip; first Ab DF200, second Ab (competitor) 1-6F1
Sequence of recombinant KIR2DL3 protein (entire extracellular domain, produced in E. coli, refolded) (human) (P43628 22-245): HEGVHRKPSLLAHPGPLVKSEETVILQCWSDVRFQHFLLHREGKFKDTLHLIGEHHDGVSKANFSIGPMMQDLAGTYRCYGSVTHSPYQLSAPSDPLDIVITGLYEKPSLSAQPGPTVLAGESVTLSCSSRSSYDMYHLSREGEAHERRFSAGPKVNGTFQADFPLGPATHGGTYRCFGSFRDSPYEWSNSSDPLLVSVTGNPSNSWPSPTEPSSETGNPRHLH

[4] = target: recombinant KIR2DL1 protein (entire extracellular domain, produced in E. coli, refolded) (human) (UniProt P43626); test: BIAcore, direct binding of second Ab to KIR2DL1 chip (field of first Ab 1-6F1)
Sequence of recombinant KIR2DL1 protein (entire extracellular domain, produced in E. coli, refolded) (human) (P43626 22-245): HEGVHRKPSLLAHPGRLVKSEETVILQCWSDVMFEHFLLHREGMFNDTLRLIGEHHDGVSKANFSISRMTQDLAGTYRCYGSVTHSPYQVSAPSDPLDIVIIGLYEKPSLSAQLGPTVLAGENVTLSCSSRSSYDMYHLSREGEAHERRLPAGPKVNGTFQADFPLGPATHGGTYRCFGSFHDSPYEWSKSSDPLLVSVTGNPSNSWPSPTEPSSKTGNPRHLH

[5] = target: recombinant KIR2DL3 protein (entire extracellular domain, produced in E. coli, refolded) (human) (UniProt P43628); test: BIAcore, direct binding of second Ab to KIR2DL3 chip (field of first Ab 1-6F5)
[6] = target: recombinant KIR2DL3 protein (entire extracellular domain, produced in E. coli, refolded) (human) (UniProt P43628); test: BIAcore competition on KIR2DL3 chip; first Ab DF200, second Ab (competitor) 1-6F5
[7] = target: recombinant KIR2DL3 protein (entire extracellular domain, produced in E. coli, refolded) (human) (UniProt P43628); test: BIAcore, direct binding of second Ab to KIR2DL3 chip (field of first Ab 1-4F1)
[8] = target: recombinant KIR2DL3 protein (entire extracellular domain, produced in E. coli, refolded) (human) (UniProt P43628); test: BIAcore competition on KIR2DL3 chip; first Ab DF200, second Ab (competitor) Pan2D
[9] = target: recombinant KIR2DL1 protein (entire extracellular domain, produced in E. coli, refolded) (human) (UniProt P43626); test: BIAcore, second Ab on KIR2DL1 chip with first Ab (competitor) 1-6F5 bound
[10] = target: recombinant KIR2DL1 protein (entire extracellular domain, produced in E. coli, refolded) (human) (UniProt P43626); test: BIAcore competition on KIR2DL1 chip; first Ab DF200, second Ab (competitor) 1-6F1
[11] = target: recombinant KIR2DL1 protein (entire extracellular domain, produced in E. coli, refolded) (human) (UniProt P43626); test: BIAcore, second Ab on KIR2DL1 chip with first Ab (competitor) 1-7F9 bound
[12] = target: recombinant KIR2DL3 protein (entire extracellular domain, produced in E. coli, refolded) (human) (UniProt P43628); test: BIAcore competition on KIR2DL3 chip; first Ab DF200, second Ab (competitor) gl183
[13] = target: recombinant KIR2DL3 protein (entire extracellular domain, produced in E. coli, refolded) (human) (UniProt P43628); test: BIAcore competition on KIR2DL3 chip; first Ab DF200, second Ab (competitor) 1-7F9
[14] = target: recombinant KIR2DL1 protein (entire extracellular domain, produced in E. coli, refolded) (human) (UniProt P43626); test: BIAcore competition on KIR2DL1 chip; first Ab DF200, second Ab (competitor) 1-4F1
[15] = target: recombinant KIR2DL1 protein (entire extracellular domain, produced in E. coli, refolded) (human) (UniProt P43626); test: BIAcore competition on KIR2DL1 chip; first Ab DF200, second Ab (competitor) EB6
[16] = target: recombinant KIR2DL3 protein (entire extracellular domain, produced in E. coli, refolded) (human) (UniProt P43628); test: BIAcore, second Ab on KIR2DL3 chip with first Ab (competitor) 1-6F1 bound
[17] = target: recombinant KIR2DL1 protein (entire extracellular domain, produced in E. coli, refolded) (human) (UniProt P43626); test: BIAcore competition on KIR2DL1 chip; first Ab DF200, second Ab (competitor) 1-7F9
[18] = target: recombinant KIR2DL1 protein (entire extracellular domain, produced in E. coli, refolded) (human) (UniProt P43626); test: BIAcore, direct binding of second Ab to KIR2DL1 chip (field of first Ab 1-7F9)
[19] = target: immobilized KIR2DS1 (UniProt Q14954); test: BIAcore competition on KIR2DS1 chip; first Ab DF200, second Ab (competitor) 1-7F9
[20] = target: KIR2DL1(R131W)-hFc (human) (UniProt P43626); test: ELISA, KIR2DL1(R131W)-hFc captured via goat anti-human antibodies, mAb titrated, peroxidase anti-mouse, A450 [panel DF200]
Sequence of KIR2DL1(R131W)-hFc (human) (P43626 22-245 R152W): as the sequence (P43626 22-245) above, with R131W counted along it

[21] = target: recombinant KIR2DL3 protein (entire extracellular domain, produced in E. coli, refolded) (human) (UniProt P43628); test: BIAcore, direct binding of second Ab to KIR2DL3 chip (field of first Ab 1-6F1)
[22] = target: recombinant KIR2DL3 protein (entire extracellular domain, produced in E. coli, refolded) (human) (UniProt P43628); test: BIAcore, second Ab on KIR2DL3 chip with first Ab (competitor) 1-4F1 bound
[23] = target: recombinant KIR2DL3 protein (entire extracellular domain, produced in E. coli, refolded) (human) (UniProt P43628); test: BIAcore competition on KIR2DL3 chip; first Ab DF200, second Ab (competitor) 1-4F1
[24] = target: recombinant KIR2DL3 protein (entire extracellular domain, produced in E. coli, refolded) (human) (UniProt P43628); test: BIAcore, direct binding of second Ab to KIR2DL3 chip (field of first Ab 1-7F9)
[25] = target: immobilized KIR2DS1 (UniProt Q14954); test: BIAcore, direct binding of second Ab to KIR2DS1 chip (field of first Ab 1-7F9)
[26] = target: recombinant KIR2DL1 protein (entire extracellular domain, produced in E. coli, refolded) (human) (UniProt P43626); test: BIAcore, direct binding of second Ab to KIR2DL1 chip (field of first Ab 1-6F5)
[27] = target: recombinant KIR2DL3 protein (entire extracellular domain, produced in E. coli, refolded) (human) (UniProt P43628); test: BIAcore, second Ab on KIR2DL3 chip with first Ab (competitor) 1-6F5 bound
[28] = target: recombinant KIR2DL1 protein (entire extracellular domain, produced in E. coli, refolded) (human) (UniProt P43626); test: BIAcore competition on KIR2DL1 chip; first Ab DF200, second Ab (competitor) Pan2D
[29] = target: recombinant KIR2DL3 protein (entire extracellular domain, produced in E. coli, refolded) (human) (UniProt P43628); test: BIAcore, second Ab on KIR2DL3 chip with first Ab (competitor) 1-7F9 bound
[30] = target: KIR2DL1-hFc (complete extra-cellular domain of KIR2DL1, amino acids H1-H224, wild-type, fused to human Fc) (human) (UniProt P43626); test: ELISA, KIR2DL1-hFc captured via goat anti-human antibodies, mAb titrated, peroxidase anti-mouse, A450 [panel DF200]
Sequence of KIR2DL1-hFc (complete extra-cellular domain of KIR2DL1, amino acids H1-H224, wild-type, fused to human Fc) (human) (P43626 22-245): as the sequence (P43626 22-245) above

[31] = target: recombinant KIR2DL1 protein (entire extracellular domain, produced in E. coli, refolded) (human) (UniProt P43626); test: BIAcore, second Ab on KIR2DL1 chip with first Ab (competitor) 1-6F1 bound
[32] = target: recombinant KIR2DL1 protein (entire extracellular domain, produced in E. coli, refolded) (human) (UniProt P43626); test: BIAcore competition on KIR2DL1 chip; first Ab DF200, second Ab (competitor) 1-6F5
[33] = target: immobilized KIR2DS1 (UniProt Q14954); test: BIAcore competition on KIR2DS1 chip; first Ab DF200, second Ab (competitor) Pan2D
[34] = target: recombinant KIR2DL3 protein (entire extracellular domain, produced in E. coli, refolded) (human) (UniProt P43628); test: BIAcore competition on KIR2DL3 chip; first Ab gl183, second Ab (competitor) Pan2D
[35] = target: recombinant KIR2DL3 protein (entire extracellular domain, produced in E. coli, refolded) (human) (UniProt P43628); test: BIAcore competition on KIR2DL3 chip; first Ab gl183, second Ab (competitor) DF200
[36] = target: recombinant KIR2DL3 protein (entire extracellular domain, produced in E. coli, refolded) (human) (UniProt P43628); test: BIAcore competition on KIR2DL3 chip; first Ab gl183, second Ab (competitor) 1-4F1
[37] = target: recombinant KIR2DL3 protein (entire extracellular domain, produced in E. coli, refolded) (human) (UniProt P43628); test: BIAcore competition on KIR2DL3 chip; first Ab gl183, second Ab (competitor) 1-7F9
[38] = target: recombinant KIR2DL3 protein (entire extracellular domain, produced in E. coli, refolded) (human) (UniProt P43628); test: BIAcore competition on KIR2DL3 chip; first Ab gl183, second Ab (competitor) 1-6F1

Sequence of immobilized KIR2DS1 (Q14954 22-245 limits assumed): as the sequence (P43626 22-245) above, with T70K, V90L, L114P, P154T, D163N, H182R, K216E counted along it

- % inhibition of second Ab binding by first Ab [1]: 87%
- RU, binding with first Ab present (RU2) [2]: 1090 RU
- % inhibition of second Ab binding by first Ab [3]: 16%
- RU, direct binding (RU1) [4]: 350 RU
- RU, direct binding (RU1) [5]: 800 RU
- % inhibition of second Ab binding by first Ab [6]: 4%
- RU, direct binding (RU1) [7]: 1140 RU
- % inhibition of second Ab binding by first Ab [8]: 75%
- RU, binding with first Ab present (RU2) [9]: 290 RU
- % inhibition of second Ab binding by first Ab [10]: 15%
- RU, binding with first Ab present (RU2) [11]: 545 RU
- % inhibition of second Ab binding by first Ab [12]: 20%
- % inhibition of second Ab binding by first Ab [13]: 62%
- % inhibition of second Ab binding by first Ab [14]: 92%
- % inhibition of second Ab binding by first Ab [15]: 90%
- RU, binding with first Ab present (RU2) [16]: 760 RU
- % inhibition of second Ab binding by first Ab [17]: 27%
- RU, direct binding (RU1) [18]: 600 RU
- % inhibition of second Ab binding by first Ab [19]: 15%
- EC50 (read off the curve) [20]: 0.02 µM
- RU, direct binding (RU1) [21]: 790 RU
- RU, binding with first Ab present (RU2) [22]: 210 RU
- % inhibition of second Ab binding by first Ab [23]: 75%
- RU, direct binding (RU1) [24]: 770 RU
- RU, direct binding (RU1) [25]: 900 RU
- RU, direct binding (RU1) [26]: 350 RU
- RU, binding with first Ab present (RU2) [27]: 760 RU
- % inhibition of second Ab binding by first Ab [28]: 80%
- RU, binding with first Ab present (RU2) [29]: 450 RU
- EC50 (read off the curve) [30]: 0.02 µM
- RU, binding with first Ab present (RU2) [31]: 310 RU
- % inhibition of second Ab binding by first Ab [32]: 15%
- % inhibition of second Ab binding by first Ab [33]: 70%
Substance: monoclonal antibody DF200 produced by hybridoma DF200

- RU, direct binding (RU1) [7]: 1240 RU
- % inhibition of second Ab binding by first Ab [34]: 40%
- % inhibition of second Ab binding by first Ab [35]: 8%
- % inhibition of second Ab binding by first Ab [36]: 75%
- RU, binding with first Ab present (RU2) [16]: 570 RU
- RU, direct binding (RU1) [21]: 620 RU
- % inhibition of second Ab binding by first Ab [37]: 76%
- RU, binding with first Ab present (RU2) [22]: 330 RU
- RU, direct binding (RU1) [24]: 800 RU
- RU, binding with first Ab present (RU2) [29]: 200 RU
- % inhibition of second Ab binding by first Ab [38]: 18%
Substance: GL183 (IgG1 anti KIR2DL3) (antibody)
